The source of these data is the DeepSol protein solubility set.

The data set in a line: soluble on expression in E. coli; label from the status in PepcDB or PDB records.
With “MSLASVIADVPGMKTIVQVLTFRDYQYDDGWHQANIEVPAISGLEESGLGQALNQKYLEENKKLYEDFMADVEEMKALGDGHMGVDSGYEIKTDNERLLAIGRYVVNTVGSSSTVFKYDTIDKVDQVLITLPSLFKDDSYVQVISDYIVNEMKAKMKADSNLIYWVVTDENKDEVNYFEPFTQIKPEQSFYINSDYKLVISFDKYEVGPGVMGMQEFVIPTEVIADRLVSDEYVREGHHHHHH”, the “soluble on expression in E. coli” value is “soluble”.

Consider “MAHHHHHHMKLMLKKKKKGRKRKRSYYKEIESLFWTAEDYNFDKDKQYLENIDKNMLVKLFELICFYSLKDLHVYEEQALITSKMLDIIQIPEGRAFYGFQMCMENIHDEVYACIFETYIPDSKQKRVIINKVIELDSVLKKQKWLTEIFESNIPYYNKLVLLYISKVLFNGTLNILIGYCKENSILPCLCNVHEKIHRDEYLHGDFSVMCCNHLVNKLKYEHVLDYFKMAVDLEYQFSLEMLELNVLKIKKEQVRAFLEYLTDTMLTNLKYPKHYNSKYPFSWPEFTKIIVNENGKEETVKKGENVYGEKQILFDEDF”, for which the “soluble on expression in E. coli” value is reported as “not soluble”.

Take “MDNPSKEIDLLLQSSYDMTILTKQGEYNVDSMLSRAHHVASRISSMYKYEKLLQDMQDLTVNGNRRKLILNDLQRENKQIMALQDENRQLRETTQEYLATMRNILDSHAEIEGSIEMGQMNSDIDDADIDRIIFEMANTDQEARLKKKALEMELMMDDLEKMRKEEYQELQLAVQRNKNYKELFKLACFSNQSANSILNSAMKIISEGDGFDDDEAQENEDLNETIIHKKQ”: the “soluble on expression in E. coli” value is listed as “not soluble”.

For the sequence “CHAINAAGKKVLIVYAHQEPKSFNGSLKNVAVDELSRQGCTVTVSDLYAMNFEPRATDKDITGTLSNPEVFNYGVETHEAYKQRSLASDITDEQKKVREADLVIFQFPLYWFSVPAILKGWMDRVLCQGFAFDIPGFYDSGLLQGKLALLSVTTGGTAEMYTKTGVNGDSRYFLWPLQHGTLHFCGFKVLAPQISFAPEIASEEERKGMVAAWSQRLQTIWKEEPIPCTAHWHFGQ”, the “soluble on expression in E. coli” value was “soluble”.

In the case of “MGHHHHHHSHMKNSSSVSNTLTNGCVINGHLDFPSTTPLSGMESRNGQCLTGTNGISSGLAPGQPFPSSQGSLCISGTEEPEKTLRANPELCGSLHLNGSPSSCIASRPSWVEDIGDNLYYGHYHGFGDTAESIPELNSVVEHSKSVKVQERYDSAVLGTMHLHHGS”, the “soluble on expression in E. coli” value is on record as “soluble”.

Regarding “MAHHHHHHMNDIYARRLAQATMFHQLMRCHGTLWAATQVTKEQMDYNFIREEFMRVNGRRAMPLLLGAAANENLHQLHLSHLSEHCAWGESARALAVQRQTPLSQRVAALGRMAETIHQVKTASTVQNLFNEQISCMEGISSFEEEPLIEGE”, the “soluble on expression in E. coli” value is reported as “not soluble”.

In the case of “MSGCPFAGNSVGYTLKNVSMEDNEEDRAQTGVNRASKGGLIYGNYLQLEKILNAQELQSEVKGNKIHDEHLFIITHQAYELWFKQILWELDSVREIFQNGHVRDERNMLKVIARMHRVVVIFKLLVQQFSVLETMTALDFNDFREYLSPASGFQSLQFRLLENKIGVLQSLRVPYNRKHYRDNFGGDYNELLLKSEQEQTLLQLVEAWLERTPGLEPNGFNFWGKFEKNILKGLEEEFLRIQAKTDSEEKEEQMAEFRKQKEVLLCLFDEKRHDYLLSKGERRLSYRALQGALMIYFYREEPRFQVPFQLLTSLMDIDTLMTKWRYNHVCMVHRMLGTKAGTGGSSGYHYLRSTVSDRYKVFVDLFNLSTYLVPRHWVPKMNPIIHKFLYTAEYSDSSYFSSDESD”, the “soluble on expression in E. coli” value is “soluble”.

Consider “MGHHHHHHSHMLSSNGASKVANSEAMILDKNLESVNSPIEKSSVNYEPSNPSEKGSKKINLSSDQNKSVSESNNDDVMLISVESPNLTTPTTSNPTDTRKITSGNSSNSPNAEVMAVQKKLDSIIDLTKEGLSNCNTESPVSPLESHSKAASNSKETTPLAQNAVQVPESFEHLPPLPEPPAPLPELVDKTRDTLPPQKPELKVKRVFRPNGIALTWNITKINPKCAPVESYHLFLCHENSNNKLIWKKIGEIKALPLPMACTLSQFLASNRYYFTVQSKDIFGRYGPFCDIKSIPGFSENLT”, for which the “soluble on expression in E. coli” value was “soluble”.

Take “QDSPNAIKAAVISSPMLGFYSGLLPKSIAKILVAIKLKFNNIISNTPWYFLGQKDYSPVNFTDNKLTHSIPRYQYFVDLYKKNKIIQLGGVTTHWLAQSIAAQKELFSKIVQLKTPILLLQASGDTVVCQQAQDDFCQQLHTLQPQSCPNGVPSNIDNAFHELFFETDDLRNKAITQSLAWFEQH”: the “soluble on expression in E. coli” value was “not soluble”.

For the sequence “MSVSNKLGDLASKVYENVLLEEVKKYPRPRHIGIITDGNRRYARNVGISENEGHVKGKEKVEEVVDWCMELDIRIVTFYAFSTENFRRSPEEVDFLFHLIDNAFKSLLKDERVYKNRINVKVIGNLSILPAYLRQTIHIVEETTKNFNNYQLNLAIGYGGREEILDAIKRITRDAMDGKLNIDELDEEKFRMYLYDGRIPDPDLILRTSGEERISNFLLWQSAYSELYFSDVYWPEFSKLDFLRAIYSYQRRQRRFGR”, the “soluble on expression in E. coli” value was “soluble”.

As for “MAHHHHHHMRSGPCPLPPAVAARSLLSPFGIGVSKRLALVGSGNSITALLVKENVPAGTPLLLAPDAALLTCQGALDADVDGLVPPPAEMLELLKRDTAQLDHVYLAYYLSLRCFTNTEDWFSSQIHRFKDSGSASQEDTASSRIWERFAQKYVTAPAPVFMAALQYVWESCFRKPATEADSASAPLPAALAVAPVVDVASQSRNATNSALTATTAKALKETHLHSDITGARQALLAKNDAYVYWVLTAITDIPVGGEVSVSSESVL”, the “soluble on expression in E. coli” value is recorded as “soluble”.

Regarding “SSMLPSFGFTQEQVACVCEVLQQGGNLERLGRFLWSLPACDHLHKNESVLKAKAVVAFHRGNFRELYKILESHQFSPHNHPKLQQLWLKAHYVEAEKLCGRPLGAVGKYRVRRKFPLPRTIWDGEETSYCFKEKSRGVLREWYAHNPYPSPREKRELAEATGLTTTQVSNWFKNRRQRDRAAEAKERENTENNNSSSNKQNQLSPLEGGKPLMSSSEEEFSPPQSPDQNSVLLLQGNMGHARSSNYSLPGLTASQPSHGLQTHQHQLQDSLLGPLTSSLVDLGS”, the “soluble on expression in E. coli” value was “soluble”.

Take “MSSIPQNIKGNNQPDIQKSFVAVHNQPGLYVGQQARFGGKVINVINGKTDTLLEISVLPLDSYAKPDIEANYQGRLLARQSGFLDPVNYRNHFVTILGTIQGEQPGFINKVPYNFLEVNMQGIQVWHLREVVNTTYNLWDYGYGAFWPEPGWGAPYYTNAVSQVTPELVKLEHHHHHH”: the “soluble on expression in E. coli” value is listed as “soluble”.

Consider “MTDRYIAFANSPVGRRLVGAVGLPSPLRLERWQAGRVRPVDGPLVIGGSGALAEAVLPFAGKLTDAVFAAVDGQFELPRWTAEHSPRAKAVLFDASGLTRFEQLVALRDFFQPVLKGLDKCPKVVVLGRPPESLKDPVTASVQRSLEGFTRSLGKEIRRGGNVQLLYVGKGAEDQLEGALRFFLSPKSAYVSGQVIRLAANSAQVHDWSKPLAGQRALVTGAARGIGAAIAETLARDGAEVVLLDVPPAREALEGLAARLGGRAVALDICAADAGQQLVEALPEGVDIVVHNAGITRDKTLAKMSSDFWNSVINVNLNAPQVLTQALLDGGKLHDNGRVVLLASISGIAGNLGQSNYAVSKAGLIGLAQAWAPALGKRGITINAVAPGFIETQMTAAIPLTIREAGRRMNSMSQGGLPQDVAETVAWFAQPSSGAVSGQVL”, for which the “soluble on expression in E. coli” value is “not soluble”.

For the sequence “MQQEEPNKYVKELTQEKYKYGFTTEVHTDVIERGLNEDVVRLISSKKDEPEWLLEFRLKAYRHWLTLEMPTWAHLRIPEIDYQAISYYADPTKKKEGPKSMDEVDPELIKTFNKLGIPLEEQMALSGMAVDAVMDSVSVKTTFKETLMEKGIIFCSFSEAVREHPDLVKKYMGSVVGYRDNFFAALNSAVFSDGSFVYIPKGVRCPMELSTYFRINARNTGQFERTLIVADDDSYVSYLEGCTAPMRDENQLHAAIVEIVVHDRAEVKYSTVQNWYPGDAEGKGGVYNFVTKRGNCKGVDSKLSWTQVETGSAITWKYPSCILTGDNSTAEFYSVAVTNNYQQADTGTKMIHLGKNTRSTIVSKGISAGHSENSYRGLVRVAEKADNARNYSQCDSLLLGDKCGAHTFPYMDIHNETAVVEHEATTSKISEDQIFYCNQRGIPTEDAIGLIVNGYAKEVLNKLPMEFAVEAQKLLTISLEGSVG”, the “soluble on expression in E. coli” value is reported as “not soluble”.

As for “MASGIRCFRLLHPAFRSYHAALTRPVSEVSMKTVSGRQHGHRQYSAYPAVPVRHFATKKAKAKGKGQPQARVTVNRALVEDIISLEEVDEDMKSVVEALKDNFNKTLNIRTAPGSLDHITVVTADGKVALNQIGQISMKSPQVILVNMASFPECTAAAIKAIRESGMNLNPEVEGTLIRVPIPKVTREHREMLVKLAKQNTNKAKENLRKVRTNAMNKLKKSKDKTSEDTIRLIEKQISQMADDTVAELDQHLAAKTKELLG”, the “soluble on expression in E. coli” value is listed as “soluble”.

For “MIYSVGNRLGNKLTGIEKAMINRHNLFKNHSITSKLIFASWSPRLHFNASLFQIEDDDILSLYDVLQDSINIKSIHKDWITHWTKECNYTLKFIENTNDIKIYEKSNYRMYVHFNDSNYQHLDYINHFDVNQRKIRRDLYDSRGFLSCSRTLTTNQKVVCEHYYTPEGTIKFQKFFNPELENSQSQLIIYNTDSQLKYFNNDQELLAFAIEKLYKNGDIFLSDKNINTAPIFNNTSETIPVLAVLHSTHVKNIDMVYESDIKNTYKHVFNNLNRYSGIIVSTKQQQLDISARINNEIPVHTIPVGYIDEHFTNLKRNNHSINNNKIISVARYSPEKQLNHQIELVSKLIKEFPNIQLHLYGFGKEEEKYKQLITEYNLENNVFLRGFRRNLSAEIQDAYMSLITSNMEGFNLGLLETITEGIPPVGYNSKYGPSELILNNENGYLINKNDKDELYNRVRNLLLDKTLRDTFSQECIKHSKAFSSKIVMKLWEDRFSTINSSYE”, the “soluble on expression in E. coli” value is “not soluble”.

For the sequence “SEFKVTVCFGRTRVDVPCGDGRMKVFSLIQQAVTRYRKAVAKDPNYWIQVHRLEHGDGGILDLDDILCDVADDKDRLVAVFDEQD”, the “soluble on expression in E. coli” value is on record as “soluble”.

On to “MENKIQELTDKIYREGVEKGNEEAQRLIANAQEEAKKIIEDARKEADSIVAASRKSADELADNTKSELKLFSGQAVNALKSEIATMVTDKLITASVKDFAQDKDYLNAFIVALASKWSVDEPIVISTADAESLKKYFAAHAKALLDKGVTIEQVNGIKTLFTVSPADGSYKVNFGEEEFMNYFKAFLRPQLVEMLF”, for which the “soluble on expression in E. coli” value is listed as “not soluble”.

As to “MSLILIKNVSYYIDNNLNVHENCDILIEKVENSEIKLTTGKNLLEKLNLNQNDLKIISGEKKCAIPGLYNAHTHVPMTLLRGIADDMILQDWLNQKIWPNEAKLNKNDVYYGSLLGCLEMLRFGVTSFNEMYFFSEEILKATKEIGLNAQVSYPIIDFGTPEEQSIDKLLTSAESFVKNNVGEKNIKVGIAPHAPYTCSEETYQKCSEISNDYNVNMHTHVSETRYEVVELENKIGMRPVEYLEKIGVLNEKLHAAHCVWITKDEAKKLAKNNAKVLHCPTSNMKLASGGVMPLFELLEYGADISVGTDGPASNNNLDILKEMKMTSLLHKAHRWDPTVAGIDTVLKMGINSESIEIKNNDIILIDLDSAHLRPFNNIKSNIVYSAFGNDVDTVIVGGNILLENKKYKFSETFISNIYKNIQKITEKFEEGHHHHHH”, the “soluble on expression in E. coli” value is given as “not soluble”.

Regarding “MNTPRIPIASHQAVMRCLRDKLQQANLTLQTDYTEPAVSYQQRGATAGTAWLQHWEIRLNPVLLQENQQTFIDEVVPHELAHLLVYARFGRVAPHGKEWRWMMENVLHVPAKRTHRFAVQSVQGKTFTYLCDCQRHELTIRRHNRVLRGETEYRCRRCGKTLRHDVKSSILEHHHHHH”, the “soluble on expression in E. coli” value is on record as “soluble”.
